To fix the notation:
B1: KRT18 (parent)
chain: RVRSLETENRRLESKIREHLEKKG
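Further: lentivirally expressed fusions sorted by FACS into six bins by GFP to DsRed ratio, PSI derived from sequencing read proportions per bin multiplied by bin number.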

In the data set the parent is B1. In words: protein stability index of a GFP-peptide fusion (GPS, HEK-293T) (PSI 1-6); higher = more stable. As to conditions: c terminus: a fixed tail appended.
As to RVRSLETENRFLESKIREHLEKKG [R11F], the protein stability index was 4.74.

As to RVRSLETENRRLESKIRGHLEKKG [E18G], the protein stability index worked out at 4.91.

For the variant RVRSLETENRRLESKIRWHLEKKG [E18W], the protein stability index amounted to 4.51.

Regarding RVRSLETENRRLESKIRTHLEKKG [E18T], the protein stability index was 4.25.

As for RVRSLETENRRLESKIRQHLEKKG [E18Q], the protein stability index stood at 3.75.

With RVRSLETENRRLESKIRNHLEKKG [E18N], the protein stability index came to 4.52.

On to RVRSLETENRRLESKIRPHLEKKG [E18P], for which the protein stability index worked out at 4.88.

Take RVRSLETENRRLESKIRHHLEKKG [E18H]: the protein stability index was found to be 3.99.

Regarding RVRSLETENRRLESKIRVHLEKKG [E18V], the protein stability index turned out to be 3.88.

Consider RVRSLETENRRLESKIRRHLEKKG [E18R], for which the protein stability index came out at 3.99.

With RVRSLETENRRLESKIRDHLEKKG [E18D], the protein stability index was determined as 4.53.

For the variant RVRSLETENRRLESKIRCHLEKKG [E18C], the protein stability index came out at 3.81.

For the variant RVRSLETENRRLESKIRAHLEKKG [E18A], the protein stability index was found to be 4.46.

With RVRSLETENRRLESKIRIHLEKKG [E18I], the protein stability index was found to be 4.29.

In the case of RVRSLETENRRLESKIRSHLEKKG [E18S], the protein stability index was determined as 4.55.

In the case of RVRSLETENRRLESKIRYHLEKKG [E18Y], the protein stability index was determined as 4.07.

As to RVRSLETENRRLESKIRKHLEKKG [E18K], the protein stability index was determined as 3.95.

On to RVRSLETENRRLESKIRMHLEKKG [E18M], for which the protein stability index is 3.94.

Regarding RVRSLETENRRLESKIRFHLEKKG [E18F], the protein stability index worked out at 3.22.

RVRSLETTNRRLESKIREHLEKKG [E8T]: the protein stability index turned out to be 4.2.

With RVRSLETKNRRLESKIREHLEKKG [E8K], the protein stability index came out at 3.89.

As for RVRSLETANRRLESKIREHLEKKG [E8A], the protein stability index was 4.08.

On to RVRSLETINRRLESKIREHLEKKG [E8I], for which the protein stability index turned out to be 4.4.

In the case of RVRSLETYNRRLESKIREHLEKKG [E8Y], the protein stability index turned out to be 3.82.

Turning to RVRSLETQNRRLESKIREHLEKKG [E8Q], the protein stability index is 3.38.

On to RVRSLETRNRRLESKIREHLEKKG [E8R], for which the protein stability index came out at 3.46.

Consider RVRSLETLNRRLESKIREHLEKKG [E8L], for which the protein stability index was 4.33.

As to RVRSLETCNRRLESKIREHLEKKG [E8C], the protein stability index turned out to be 4.22.

For RVRSLETHNRRLESKIREHLEKKG [E8H], the protein stability index is 4.36.

Regarding RVRSLETGNRRLESKIREHLEKKG [E8G], the protein stability index came out at 4.42.

As for RVRSLETMNRRLESKIREHLEKKG [E8M], the protein stability index is 4.32.

Regarding RVRSLETDNRRLESKIREHLEKKG [E8D], the protein stability index was found to be 3.96.

For the variant RVRSLETEDRRLESKIREHLEKKG [N9D], the protein stability index was 5.09.

Take RVRSLETEHRRLESKIREHLEKKG [N9H]: the protein stability index came to 4.51.

For RVRSLETEGRRLESKIREHLEKKG [N9G], the protein stability index stood at 3.48.

RVRSLETELRRLESKIREHLEKKG [N9L]: the protein stability index came to 1.79.

Consider RVRSLETERRRLESKIREHLEKKG [N9R], for which the protein stability index is 3.81.

With RVRSLETEVRRLESKIREHLEKKG [N9V], the protein stability index is 1.9.

In the case of RVRSLETEYRRLESKIREHLEKKG [N9Y], the protein stability index amounted to 3.85.

With RVRSLETEQRRLESKIREHLEKKG [N9Q], the protein stability index is 4.74.

Turning to RVRSLETEERRLESKIREHLEKKG [N9E], the protein stability index is 4.97.

Regarding RVRSLETEWRRLESKIREHLEKKG [N9W], the protein stability index worked out at 1.85.

Turning to RVRSLETEARRLESKIREHLEKKG [N9A], the protein stability index is 2.73.

Take RVRSLETEIRRLESKIREHLEKKG [N9I]: the protein stability index was found to be 2.

RVRSLETEMRRLESKIREHLEKKG [N9M]: the protein stability index turned out to be 2.85.

On to RVRSLETEFRRLESKIREHLEKKG [N9F], for which the protein stability index turned out to be 2.3.

Turning to RVRSLETENRRLESKILEHLEKKG [R17L], the protein stability index amounted to 4.22.

RVRSLETENRRLESKIQEHLEKKG [R17Q]: the protein stability index stood at 4.54.

As to RVRSLETENRRLESKIKEHLEKKG [R17K], the protein stability index is 4.39.

On to RVRSLETENRRLESKITEHLEKKG [R17T], for which the protein stability index amounted to 5.

With RVRSLETENRRLESKIMEHLEKKG [R17M], the protein stability index stood at 4.53.

As for RVRSLETENRRLESKIDEHLEKKG [R17D], the protein stability index came out at 5.49.

Regarding RVRSLETENRRLESKIAEHLEKKG [R17A], the protein stability index worked out at 3.79.

Consider RVRSLETENRRLESKIFEHLEKKG [R17F], for which the protein stability index was determined as 4.55.

Regarding RVRSLETENRRLESKIPEHLEKKG [R17P], the protein stability index is 4.84.

As for RVRSLETENRRLESKIVEHLEKKG [R17V], the protein stability index stood at 4.96.

With RVRSLETENRRLESKIYEHLEKKG [R17Y], the protein stability index turned out to be 4.92.

Take RVRSLETENRRLESKIHEHLEKKG [R17H]: the protein stability index was found to be 5.06.

As for RVRSLETENRRLESKICEHLEKKG [R17C], the protein stability index worked out at 5.24.

Consider RVRSLETENRRLESKINEHLEKKG [R17N], for which the protein stability index worked out at 4.25.

For the variant RVRSLETENRRLESKIGEHLEKKG [R17G], the protein stability index was found to be 5.38.

As for RVRSLETENRRLESKIIEHLEKKG [R17I], the protein stability index was determined as 4.37.

RVRSLETENRRLESKISEHLEKKG [R17S]: the protein stability index turned out to be 5.14.

As for RVRSLETENRRLESKGREHLEKKG [I16G], the protein stability index is 5.45.

For RVRSLETENRRLESKYREHLEKKG [I16Y], the protein stability index is 4.63.

Turning to RVRSLETENRRLESKSREHLEKKG [I16S], the protein stability index was determined as 5.16.

Regarding RVRSLETENRRLESKCREHLEKKG [I16C], the protein stability index is 4.79.

Regarding RVRSLETENRRLESKMREHLEKKG [I16M], the protein stability index worked out at 5.17.

In the case of RVRSLETENRRLESKTREHLEKKG [I16T], the protein stability index stood at 4.29.

Turning to RVRSLETENRRLESKDREHLEKKG [I16D], the protein stability index amounted to 5.71.

With RVRSLETENRRLESKVREHLEKKG [I16V], the protein stability index was 4.37.

As for RVRSLETENRRLESKWREHLEKKG [I16W], the protein stability index is 4.96.

RVRSLETENRRLESKNREHLEKKG [I16N]: the protein stability index worked out at 5.56.

As to RVRSLETENRRLESKEREHLEKKG [I16E], the protein stability index stood at 3.79.

For RVRSLETENRRLESKPREHLEKKG [I16P], the protein stability index was 5.28.

Turning to RVRSLETENRRLESKQREHLEKKG [I16Q], the protein stability index turned out to be 5.09.

Turning to RVRSLETENRRLESKLREHLEKKG [I16L], the protein stability index is 4.32.

Regarding RVRSLETENRRLESIIREHLEKKG [K15I], the protein stability index was found to be 4.41.

Turning to RVRSLETENRRLESMIREHLEKKG [K15M], the protein stability index is 4.02.

For RVRSLETENRRLESYIREHLEKKG [K15Y], the protein stability index is 4.7.

Regarding RVRSLETENRRLESAIREHLEKKG [K15A], the protein stability index was 4.53.

In the case of RVRSLETENRRLESQIREHLEKKG [K15Q], the protein stability index amounted to 4.56.

As to RVRSLETENRRLESTIREHLEKKG [K15T], the protein stability index is 4.76.

On to RVRSLETENRRLESLIREHLEKKG [K15L], for which the protein stability index came to 3.88.

With RVRSLETENRRLESNIREHLEKKG [K15N], the protein stability index was 5.24.

As for RVRSLETENRRLESWIREHLEKKG [K15W], the protein stability index worked out at 3.1.

Turning to RVRSLETENRRLESSIREHLEKKG [K15S], the protein stability index amounted to 5.16.

On to RVRSLETENRRLESCIREHLEKKG [K15C], for which the protein stability index stood at 4.06.

For RVRSLETENRRLESDIREHLEKKG [K15D], the protein stability index amounted to 3.69.

Turning to RVRSLETENRRLESFIREHLEKKG [K15F], the protein stability index is 3.04.

For the variant RVRSLETENRRLESHIREHLEKKG [K15H], the protein stability index came out at 3.6.

For the variant RVRSLETENRRLESPIREHLEKKG [K15P], the protein stability index is 5.23.

Regarding RVRSLETENRRLESRIREHLEKKG [K15R], the protein stability index stood at 4.67.

Consider RVRSLETENRRLESEIREHLEKKG [K15E], for which the protein stability index amounted to 5.16.
